Common to all, as to experiment: peptide library pulldown on immobilized Nb, LC-MS of supernatant; ratio vs GFP-Nb control (1 = not captured, 0 = captured)
The target in assay [1] is T1, BC2T W10E library peptide (human).
T1 construct: also called BC2TW10X: E
T1 peptide: Ac-PDRKAAVSHEQQ-NH2
The method, boiled down: (§1)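 Unbound peptide left in supernatant after 1 h pulldown in PBS/0.01% CHAPS measured by reversed-phase LC-MS (8–30% eluent B gradient, 20 min).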

A further assay has as its target T2, BC2T H9A library peptide (human).
T2 peptide: Ac-PDRKAAVSAWQQ-NH2
The method, boiled down:
as §1

Assay [2] has as its target T3, BC2T W10H library peptide (human).
T3 construct: also called BC2TW10X: H
T3 peptide: Ac-PDRKAAVSHHQQ-NH2
The method, boiled down:
as §1

Assay [3] has as its target T4, BC2T S8(I/L) library peptide, version 1 (N-terminal acetyl, C-terminal amide).
T4 construct: Ile and Leu versions are isobaric; two versions resolved but not assigned; also called BC2TS8X: I/L1
Summed up: as §1

Assay [4] deals with T5, BC2T W10D library peptide (human).
T5 construct: also called BC2TW10X: D
T5 peptide: Ac-PDRKAAVSHDQQ-NH2
Summed up: as §1

Assay [5] concerns the target T6, BC2T Q12P library peptide (human).
T6 peptide: Ac-PDRKAAVSHWQP-NH2
Summed up:
as §1

Assay [6] addresses T7, BC2T Q12H library peptide (human).
T7 peptide: Ac-PDRKAAVSHWQH-NH2
The method, boiled down: as §1

For assay [7], the target named is T8, BC2T Q12N library peptide (human).
T8 peptide: Ac-PDRKAAVSHWQN-NH2
Summed up:
as §1

The next assay addresses T9, BC2T H9W library peptide (human).
T9 peptide: Ac-PDRKAAVSWWQQ-NH2
The method, boiled down: as §1

The target in assay [8] is T10, BC2T Q11M library peptide (human).
T10 peptide: Ac-PDRKAAVSHWMQ-NH2
The method, boiled down:
as §1

The target in assay [9] is T11, BC2T Q12T library peptide (human).
T11 peptide: Ac-PDRKAAVSHWQT-NH2
Summed up: as §1

The target of a further assay is T12, BC2T H9Q library peptide (human).
T12 peptide: Ac-PDRKAAVSQWQQ-NH2
Summed up: as §1

The next assay has as its target T13, BC2T H9K library peptide (human).
T13 peptide: Ac-PDRKAAVSKWQQ-NH2
Summed up: as §1

Assay [10] concerns the target T14, BC2T Q12S library peptide (human).
T14 peptide: Ac-PDRKAAVSHWQS-NH2
Summed up: as §1

The target in the next assay is T15, BC2T S8Q library peptide (human).
T15 construct: also called BC2TS8X: Q
T15 peptide: Ac-PDRKAAVQHWQQ-NH2
Summed up:
as §1

A further assay addresses T16, BC2T S8Y library peptide (human).
T16 construct: also called BC2TS8X: Y
T16 peptide: Ac-PDRKAAVYHWQQ-NH2
The method, boiled down:
as §1

The target in assay [11] is T17, BC2T H9C* library peptide (human, SMILES …).
T17 construct: also called C(Abu)
T17 peptide: Ac-PDRKAAVS[GABA]WQQ-NH2
The method, boiled down: as §1

Assay [12] has as its target T18, BC2T Q11T library peptide (human).
T18 peptide: Ac-PDRKAAVSHWTQ-NH2
The method, boiled down:
as §1

Another assay deals with T19, BC2T S8M library peptide (human).
T19 construct: also called BC2TS8X: M
T19 peptide: Ac-PDRKAAVMHWQQ-NH2
The method, boiled down: as §1

Assay [13] deals with T20, BC2T Q11(I/L) library peptide, version 1 (N-terminal acetyl, C-terminal amide).
T20 construct: Ile and Leu versions are isobaric; two versions resolved but not assigned; also called I/L1
Summed up:
as §1

Square brackets hold non-standard residues; d marks the D form. GABA = NCCCC(=O)O

B1: BC2-Nb(R106E) (VHH)
VHH: QVQLVESGGGLVQPGGSLTLSCTASGFTLDHYDIGWFRQAPGKEREGVSCINNSDDDTYYADSVKGRFTIFMDNAKDTVYLQMNSLKPEDTAIYYCAEARGCKRGEYEYDFWGQGTQVTVSS
notes: Headlock mutant; immobilized on beads in the library pulldown
As to B1, the ratio in assay [1] is 1.2; with BC2T H9A library peptide, 0.3; in assay [2], 1.2; in [3], 0.5; in assay [4], 1.1; in assay [5], 0.1. Besides, the ratio in assay [6] came to 0.1; in assay [7], 0.1; in the assay with BC2T H9W library peptide, 0.1; in [8], 0.2; in assay [9] it was 0.1; with BC2T H9Q library peptide it was 0.3. The ratio stood at 0.2 with BC2T H9K library peptide; 0.1 in [10]; 0.9 with BC2T S8Q library peptide; 0.9 with BC2T S8Y library peptide; 0.3 in assay [11]; 0.2 in [12]. Further, the values for the ratio (with BC2T S8M library peptide; in assay [13]) were 1 and 0.2, respectively.

The values above are taken from patent publication US20170137467A1 (CHROMOTEK, published 2017).
